# Measurements reported in article PMC10960945, “A nanobody inhibitor of Fascin-1 actin-bundling activity and filopodia formation” (Open Biology, 2024).
# Target: Fascin-1 1-493 (full-length human Fascin-1 WT, untagged) (human, UniProt Q16658)
# Experiment: pull-down; in vitro co-precipitation of recombinant proteins: His-tagged Nbs immobilised on Nickel Sepharose as bait for untagged Fascin-1; SDS-PAGE
# Conditions: both partners purified
row,Binder,binding result
1,"Nb 3H7 (VHH, also called nanobody 3H7; not shown: His-tag, C-terminal, kept) VHH: QVQLQESGGGLVQAGGSLRLSCAGPVRAFNTYAMGWFRQAPGKEREFVAAITRSGDVTYYSNSVKGRFTISRENAKNTVYLHMNSLKPEDTAVYSCAADAQLTPLNPRAQEYAYWGQGTQVTVSS",binds
2,"Nb 3B9 (VHH, Eluted in SEC as a dimer and a monomer population; the two were kept separate in the later assays and counted as two of the 14 Nbs; not shown: His-tag, C-terminal, kept) VHH: QVQLQESGGGLVQAGGSLRLSCAASGRTFSSYAMGWFRQAPGMEREFVAAIPWIGGNTYYADSVKGRFTISRDNAKTLYLLMNSLKPEDTALYYCAARAHSYVLSTSPSHYDYWGQGTQVTVSS",binds
3,"Nb 3G9 (VHH, Eluted in SEC as a dimer and a monomer population; the two were kept separate in the later assays and counted as two of the 14 Nbs; not shown: His-tag, C-terminal, kept) VHH: QVQLQESGGGLVQAGDSLRLSCAASRRTSNTYAMGWFRQAPGKEREFVAAIPWIGGNTYYADSVKGRFTISRDNAKTLYLLMNSLKPEDTALYYCAARAHSYVLSTSPSHYDYWGQGTQVTVSS",binds
4,"Nb 3G11 (VHH, also called nanobody 3G11; not shown: His-tag, C-terminal, kept) VHH: QVQLQESGGGLVQAGGSLRLSCAVSGRLNSRYSMGWFRQAPGKEREFVAVVKWTTGGTMYADSVKGRFTISRDNRKNTVYLQMNTLKPEDTALYYCASRPDYSNSYYYTTVSDYSDWGQGTQVTVSS",binds
